Reference: publication PMC6326814

Columns and labels:
[1] = target: BbvCI R2 subunit, wild type (Geobacillus brevis); assay: SEC; purified enzyme at pH 7.5 (pH of the storage buffer); sample with 1:1 subunits by Supplementary Figure S1
[2] = target: BbvCI R2 subunit, wild type (Geobacillus brevis); assay: crystal structure; crystal form 1, grown from the purified enzyme with dsDNA oligos against 0.8 M ammonium sulfate, 100 mM sodium acetate pH 4.5, 2 mM CaCl2; only R2 in the crystal

| Substance | stoichiometry N [1] | stoichiometry N [2] |
| --- | --- | --- |
| BbvCI R1 subunit, wild type (enzyme) | 1 R1:R2 | – |
| BbvCI R2 subunit, wild type (enzyme) | – | 2 |
